Measurements from the supplement of paper PMC7877785.
± gives the uncertainty stated by the source.

Test: self-splicing fitness, log relative to wild type (ln ratio); higher = more splicing; Tetrahymena group I intron in knt gene, E. coli kanamycin selection, DiMSum; sequences stand for … in CUCUCU…GGAGGGAAAAGUUAUCAGGCAUGCACCUGGUAGCUAGUCUUUAAACCAAUAGAUUGCAUCGGUUUAAAAGGCAAGACCGUCAAAUUGCGGGAAAGGGGUCAACAGCCGUUCAGUACCAAGUCUCAGGGGAAACUUUGAGAUGGCCUUGCAAAGGGUAUGGUAAUAAGCUGACGGACAUGGUCCUAACCACGCAGCCAAGUCCUAAGUCAACAGAUCUUCUGUUGAUAUGGAUGCAGUUCACAGACUAAAUGUCGGUCGGGGAAGAUGUAUUCUUCUCAUAAGAUAUAGUCGGACCUCUCCUUAAUGGGAGCUAGCGGAUGAAGUGAUGCAACACUGGAGCCGCUGGGAACUAAUUUGUAUGCGAAAGUAUAUUGAUUAGUUUUGGAGUACUCGUGGUCG
Summary of the method: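 Pooled colonies went to amplicon sequencing on an Illumina HiSeq 2500 after six replicate transformations. The plates were LB agar with 100 μg/mL carbenicillin, 50 μM IPTG and 0.2% rhamnose, with or without 25 μg/mL kanamycin, incubated overnight at 37°C or 30°C. The E. coli BL21(DE3) library had all eight P1ex-region intron nucleotides randomised, the intron placed in the knt kanamycin-resistance gene on pET-22b(+). DiMSum fitness is the error-weighted combination of replicate fold changes, kanamycin against none, normalised to wild type.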

Row | Sequence | self-splicing fitness (ln) (30 °C) | self-splicing fitness (ln) (37 °C)
1 | UUCGAGCAAUAUUACGAAGG | -2.09 ± 0.23 | -1.62 ± 0.27
2 | AAAAAGCAAUAUUACGCGGA | -1.95 ± 0.11 | -0.504 ± 0.11
3 | CCUCAGCAAUAUUACGUACA | -3.73 ± 0.29 | -2.78 ± 0.34
4 | UAAGAGCAAUAUUACGGGCG | -2.73 ± 0.16 | -2.29 ± 0.19
5 | CGAGAGCAAUAUUACGCAGU | -1.96 ± 0.41 | -2.21 ± 0.47
6 | UGAAAGCAAUAUUACGCGGU | – | -1.78 ± 0.36
7 | GCCAAGCAAUAUUACGGAGA | -1.45 ± 0.086 | -0.924 ± 0.089
8 | ACCCAGCAAUAUUACGAAGC | -0.907 ± 0.069 | -0.523 ± 0.072
9 | UGGCAGCAAUAUUACGUCAU | -4.47 ± 0.33 | -2.67 ± 0.26
10 | CCCUAGCAAUAUUACGCGUA | -2.29 ± 0.31 | -0.911 ± 0.2
11 | UAGUAGCAAUAUUACGCGAC | – | -1.69 ± 0.29
12 | ACUGAGCAAUAUUACGCAGC | – | -1.7 ± 0.42
13 | UACGAGCAAUAUUACGGUUG | -2.72 ± 0.13 | -2.11 ± 0.16
14 | AGAUAGCAAUAUUACGUGGA | -3.21 ± 0.25 | -2.37 ± 0.28
15 | CAUCAGCAAUAUUACGCCAG | -0.613 ± 0.068 | -0.553 ± 0.1
16 | CUUAAGCAAUAUUACGUAGU | -3.14 ± 0.13 | -2.3 ± 0.18
17 | GACAAGCAAUAUUACGUUUG | -2.88 ± 0.094 | -2.64 ± 0.13
18 | CUAAAGCAAUAUUACGUUUG | -1.47 ± 0.075 | -0.672 ± 0.092
19 | CCGCAGCAAUAUUACGCCUU | -3.2 ± 0.21 | -2.08 ± 0.16
20 | GUACAGCAAUAUUACGCAAG | -2.59 ± 0.16 | -2.08 ± 0.17
21 | AAUCAGCAAUAUUACGUCAU | 0.166 ± 0.064 | 0.337 ± 0.077
22 | AAGCAGCAAUAUUACGGUUC | -2.24 ± 0.097 | -2.02 ± 0.12
23 | GUAAAGCAAUAUUACGCCUU | -1.57 ± 0.11 | 0.238 ± 0.15
24 | UGGUAGCAAUAUUACGCUCA | -0.626 ± 0.14 | 0.26 ± 0.18
25 | GUGGAGCAAUAUUACGGAAU | -3.23 ± 0.16 | -1.33 ± 0.17

Row | Sequence | self-splicing fitness (ln) (30 °C) | self-splicing fitness (ln) (37 °C)
26 | ACUAAGCAAUAUUACGUUGG | -2.95 ± 0.12 | -1.73 ± 0.11
27 | CUCUAGCAAUAUUACGGUUU | -3.04 ± 0.41 | -1.82 ± 0.29
28 | UAGAAGCAAUAUUACGCCUU | -1.03 ± 0.22 | -1.38 ± 0.26
29 | AGUAAGCAAUAUUACGAGGC | -2.59 ± 0.34 | –
30 | CAAUAGCAAUAUUACGGCAG | -0.535 ± 0.078 | 0.191 ± 0.11
31 | ACAAAGCAAUAUUACGAUUC | -1.92 ± 0.085 | -0.67 ± 0.1
32 | UAUCAGCAAUAUUACGGAAA | -0.825 ± 0.11 | -0.253 ± 0.12
33 | CCACAGCAAUAUUACGCUAA | -3.8 ± 0.22 | -1.62 ± 0.15
34 | ACCCAGCAAUAUUACGGCCG | -2.81 ± 0.15 | -2.6 ± 0.19
35 | UAUUAGCAAUAUUACGCAGG | -1.43 ± 0.14 | -0.962 ± 0.14
36 | CCAAAGCAAUAUUACGGAUU | -3.94 ± 0.25 | -3.55 ± 0.35
37 | CUGAAGCAAUAUUACGAUGA | -3.52 ± 0.21 | -1.92 ± 0.16
38 | AAAGAGCAAUAUUACGCGCU | -2.96 ± 0.4 | –
39 | GUAUAGCAAUAUUACGAAAU | -3.05 ± 0.25 | -1.63 ± 0.22
40 | UGCUAGCAAUAUUACGCUUG | -3.74 ± 0.21 | -0.96 ± 0.13
41 | GUAUAGCAAUAUUACGACGC | -0.42 ± 0.16 | 0.113 ± 0.18
42 | CGAUAGCAAUAUUACGCCCG | -1.39 ± 0.18 | -1.44 ± 0.25
43 | UAAGAGCAAUAUUACGCGAU | -3.86 ± 0.26 | -2.56 ± 0.24
44 | UGUUAGCAAUAUUACGGCAG | 0.45 ± 0.1 | -1.03 ± 0.12
45 | CGCCAGCAAUAUUACGCUGG | -3.22 ± 0.17 | -2.2 ± 0.18
46 | AAGAAGCAAUAUUACGUGUU | -2.15 ± 0.13 | -1.61 ± 0.13
47 | ACAAAGCAAUAUUACGCGAA | -2.41 ± 0.096 | -1.13 ± 0.092
48 | UGUUAGCAAUAUUACGAAUA | -1.32 ± 0.14 | -0.0107 ± 0.14
49 | AAUCAGCAAUAUUACGACAG | -1.31 ± 0.083 | -0.761 ± 0.1
50 | UACUAGCAAUAUUACGCAUA | -1.99 ± 0.14 | -0.0544 ± 0.09

Row | Sequence | self-splicing fitness (ln) (30 °C) | self-splicing fitness (ln) (37 °C)
51 | AAGCAGCAAUAUUACGCAGG | -2.34 ± 0.14 | -1.13 ± 0.11
52 | UAAGAGCAAUAUUACGUGGA | -2.84 ± 0.28 | -2.14 ± 0.3
53 | ACAGAGCAAUAUUACGAAUG | -3.82 ± 0.16 | -2.51 ± 0.19
54 | UAUUAGCAAUAUUACGCCGG | -0.99 ± 0.22 | -0.907 ± 0.26
55 | UGAAAGCAAUAUUACGCGGA | -1.66 ± 0.13 | -1.52 ± 0.13
56 | CAACAGCAAUAUUACGAACG | 0.0149 ± 0.065 | 0.73 ± 0.084
57 | UUACAGCAAUAUUACGAAAU | -3.69 ± 0.34 | -2.59 ± 0.33
58 | UCCGAGCAAUAUUACGUAGC | -3.33 ± 0.23 | -2.14 ± 0.28
59 | GGGAAGCAAUAUUACGUAUG | -2.95 ± 0.16 | -1.11 ± 0.15
60 | AUACAGCAAUAUUACGUAAA | -1.87 ± 0.091 | -1.41 ± 0.087
61 | UAGCAGCAAUAUUACGAAUC | -3.68 ± 0.42 | -2.03 ± 0.27
62 | UACAAGCAAUAUUACGUUGA | -2.72 ± 0.17 | -2.06 ± 0.15
63 | GCGUAGCAAUAUUACGGCAU | -0.91 ± 0.061 | -0.0121 ± 0.072
64 | GACGAGCAAUAUUACGAGUU | -3.06 ± 0.34 | –
65 | GGGUAGCAAUAUUACGAUAU | -0.506 ± 0.11 | -0.0772 ± 0.12
66 | AGGGAGCAAUAUUACGACAA | -3.29 ± 0.29 | -3.44 ± 0.42
67 | UUCAAGCAAUAUUACGGCGG | -0.903 ± 0.076 | -0.416 ± 0.1
68 | GAACAGCAAUAUUACGGGUA | -1.54 ± 0.07 | -1.32 ± 0.076
69 | UCCGAGCAAUAUUACGAGUA | -1.98 ± 0.16 | -1.1 ± 0.12
70 | AUUGAGCAAUAUUACGUCCG | -2.58 ± 0.16 | -2.91 ± 0.48
71 | UACAAGCAAUAUUACGCUUG | -3.1 ± 0.23 | -2.79 ± 0.41
72 | ACGAAGCAAUAUUACGUGAA | -2.43 ± 0.089 | -1.64 ± 0.13
73 | AUUUAGCAAUAUUACGUCAA | -3.4 ± 0.29 | -2.14 ± 0.34
74 | GCUCAGCAAUAUUACGAGUA | -0.337 ± 0.098 | -0.433 ± 0.1
75 | GCGAAGCAAUAUUACGGUUA | 0.0459 ± 0.22 | -0.871 ± 0.19

Row | Sequence | self-splicing fitness (ln) (30 °C) | self-splicing fitness (ln) (37 °C)
76 | GUUAAGCAAUAUUACGCCUG | -0.512 ± 0.11 | -0.224 ± 0.12
77 | AUUGAGCAAUAUUACGCAAA | -3.02 ± 0.29 | –
78 | AUAAAGCAAUAUUACGAAAC | -2.47 ± 0.19 | -1.18 ± 0.32
79 | AAACAGCAAUAUUACGCUGG | -2.53 ± 0.12 | -2.62 ± 0.2
80 | ACUGAGCAAUAUUACGUAUC | – | -2.99 ± 0.44
81 | UGUCAGCAAUAUUACGAGGG | -3.72 ± 0.2 | -1.37 ± 0.14
82 | GAAAAGCAAUAUUACGCGGC | -3.33 ± 0.19 | -3.07 ± 0.26
83 | UCACAGCAAUAUUACGGUAA | -1 ± 0.084 | -0.187 ± 0.088
84 | GCAAAGCAAUAUUACGUUGA | -1.67 ± 0.088 | -1.03 ± 0.094
85 | GCUUAGCAAUAUUACGACGA | -0.927 ± 0.16 | -0.516 ± 0.13
86 | UGUUAGCAAUAUUACGUUAC | -1.97 ± 0.43 | –
87 | AGCUAGCAAUAUUACGGUCG | -0.942 ± 0.072 | 0.371 ± 0.1
88 | UGGGAGCAAUAUUACGUCGA | -1.85 ± 0.39 | -1.21 ± 0.28
89 | CUCGAGCAAUAUUACGAUAA | -2.16 ± 0.36 | -2.02 ± 0.37
90 | UAUUAGCAAUAUUACGAAGA | -1.81 ± 0.17 | -1.75 ± 0.26
91 | GAUGAGCAAUAUUACGGUCC | -3.29 ± 0.2 | -2.27 ± 0.36
92 | AUGGAGCAAUAUUACGGGCC | -2.63 ± 0.39 | –
93 | UAAGAGCAAUAUUACGCGGG | -3.49 ± 0.37 | -3.91 ± 0.36
94 | CCCGAGCAAUAUUACGUAGG | -2.04 ± 0.11 | -1.16 ± 0.14
95 | AAUCAGCAAUAUUACGGCGU | 0.47 ± 0.068 | 0.7 ± 0.076
96 | UAUAAGCAAUAUUACGAGGA | -2.44 ± 0.42 | –
97 | UCAAAGCAAUAUUACGGUCA | -0.88 ± 0.1 | -0.6 ± 0.1
98 | AGGGAGCAAUAUUACGCGUC | -3.15 ± 0.29 | -2.51 ± 0.37
